Where a chain is given by its changes, count along the chain named. Names may count otherwise.
T1: PUF4 RNA-binding domain (Saccharomyces cerevisiae, UniProt P25339 537-888)
T1 sequence: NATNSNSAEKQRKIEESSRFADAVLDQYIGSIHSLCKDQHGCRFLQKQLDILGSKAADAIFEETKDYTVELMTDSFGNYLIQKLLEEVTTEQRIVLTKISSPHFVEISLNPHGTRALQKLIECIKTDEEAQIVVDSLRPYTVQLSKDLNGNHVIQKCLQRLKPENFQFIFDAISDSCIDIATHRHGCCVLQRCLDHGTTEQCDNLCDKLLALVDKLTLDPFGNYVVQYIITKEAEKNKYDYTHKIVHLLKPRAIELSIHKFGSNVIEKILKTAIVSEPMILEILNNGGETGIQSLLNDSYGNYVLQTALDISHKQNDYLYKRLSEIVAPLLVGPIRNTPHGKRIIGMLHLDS

B1: Ie_S4_P4E.1_K4.1_C4.1_H4.1_A4.1_F4.1_[+8CCTCT]_T4.1 (ssRNA)
RNA: UUUGACAACUGAUCGUUCUUUCUUGUAUAUUCCUCUAUUCUUUCUCGAUCAGUUGUCUUU
B2: Ie_S4_P4E.1_K4.1_C4.1_H4.1_A4.1_F4.1_[+9TCTCT]_T4.1 (ssRNA)
RNA: B1 RNA with C32A, C33U, U34C, C35U, U36C, A37U
B3: Ie_S4_P4E.1_K4.1_C4.1_H4.1_A4.1_F4.1_[+9CCCTT]_T4.1 (ssRNA)
RNA: B1 RNA with C32A, U34C, A37U
B4: Ie_S4_P5E.1_K5.1_C5.1_H5.1_[+3CTCT]_A5.1_F5.1_T5.1 (ssRNA)
RNA: B1 RNA with A27C, A29C, U31A, C32U, C33U, U34A, C35U
B5: Ie_S4_P4E.1_K4.1_C4.1_H4.1_A4.1_F4.1_[+8CT]_T4.1 (ssRNA)
RNA: UUUGACAACUGAUCGUUCUUUCUUGUAUAUUCUAUUCUUUCUCGAUCAGUUGUCUUU
B6: Ie_S4_P5E.1_K5.1_C5.1_H5.1_[+3C]_A5.1_F5.1_T5.1 (ssRNA)
RNA: B5 RNA with A27C, U28A, A29U, U31A, C32U
B7: Ie_S4_P4E.1_K4.1_C4.1_H4.1_A4.1_F4.1_[+9CC]_T4.1 (ssRNA)
RNA: B5 RNA with C32A, U33C, A34C
B8: Ie_S4_P4E.1_K4.1_C4.1_H4.1_A4.1_F4.1_[+9TC]_T4.1 (ssRNA)
RNA: B5 RNA with C32A, A34C
B9: Ie_S4_P5E.1_K5.1_C5.1_H5.1_[+3T]_A5.1_F5.1_T5.1 (ssRNA)
RNA: B5 RNA with A27U, U28A, A29U, U31A, C32U
B10: Ib_S2_P3E.1_K3.1_C3.1_H3.1_[A4C]_A3.1_[T5C]_F3.1_T3.1 (ssRNA)
RNA: UUUGAUUAAUAUGAUAUCGUUCUUUCUUGUCCAUAUUCUUUCUCGAUAUCAUAUUAAUCUUU
B11: Ib_S2_P3E.1_K3.1_C3.1_H3.1_[A4G]_A3.1_[A6C]_F3.1_T3.1 (ssRNA)
RNA: B10 RNA with C31G, C32U, A33C
B12: Ib_S2_P3E.1_K3.1_C3.1_H3.1_[A4T]_A3.1_[T5A]_F3.1_T3.1 (ssRNA)
RNA: B10 RNA with C31U, C32A
B13: Ic_S2_P3E.1_K3.1_C3.1_H3.1_A3.1_[A6G]_F3.1_T3.1 (ssRNA)
RNA: B10 RNA with C31A, C32U, A33G
B14: Ib_S2_P3E.1_K3.1_C3.1_H3.1_[A4C]_A3.1_[T5A]_F3.1_T3.1 (ssRNA)
RNA: B10 RNA with C32A
B15: Ie_S4_P5E.1_K5.1_C5.1_H5.1_[+3CCCTT]_A5.1_F5.1_T5.1 (ssRNA)
RNA: UUUGACAACUGAUCGUUCUUUCUUGUCCCUUAUUAUUAUUCUUUCUCGAUCAGUUGUCUUU
B16: Ie_S4_P4E.1_K4.1_C4.1_H4.1_A4.1_[+6CCCT]_F4.1_T4.1 (ssRNA)
RNA: UUUGACAACUGAUCGUUCUUUCUUGUAUACCCUUUAUUCUUUCUCGAUCAGUUGUCUUU
B17: Ie_S4_P5E.1_K5.1_C5.1_H5.1_[+3TTT]_A5.1_F5.1_T5.1 (ssRNA)
RNA: B16 RNA with A27U, A29U, C30A, C31U, C32U, U33A
B18: Ie_S4_P4E.1_K4.1_C4.1_H4.1_A4.1_[+7TCTC]_F4.1_T4.1 (ssRNA)
RNA: B16 RNA with C30U, C31U, U34C
B19: Ie_S4_P5E.1_K5.1_C5.1_H5.1_[+3TCC]_A5.1_F5.1_T5.1 (ssRNA)
RNA: B16 RNA with A27U, U28C, A29C, C30A, C31U, C32U, U33A
B20: Ie_S4_P4E.1_K4.1_C4.1_H4.1_A4.1_F4.1_[+9CTCT]_T4.1 (ssRNA)
RNA: B16 RNA with C30U, C31U, C32A, U33C, U35C, A36U
B21: Ie_S4_P5E.1_K5.1_C5.1_H5.1_[+3TCT]_A5.1_F5.1_T5.1 (ssRNA)
RNA: B16 RNA with A27U, U28C, A29U, C30A, C31U, C32U, U33A
B22: Ie_S4_P5E.1_K5.1_C5.1_H5.1_[+2TCC]_A5.1_F5.1_T5.1 (ssRNA)
RNA: B16 RNA with A27C, U28C, A29U, C30A, C31U, C32U, U33A
B23: Ie_S4_P4E.1_K4.1_C4.1_H4.1_A4.1_F4.1_[+9TCTC]_T4.1 (ssRNA)
RNA: B16 RNA with C30U, C31U, C32A, U34C, A36C
B24: Ie_S4_P4E.1_K4.1_C4.1_H4.1_A4.1_F4.1_[+8TCTC]_T4.1 (ssRNA)
RNA: B16 RNA with C30U, C31U, C32U, U33C, U35C
B25: Ie_S4_P5E.1_K5.1_C5.1_H5.1_[+2TCT]_A5.1_F5.1_T5.1 (ssRNA)
RNA: B16 RNA with A27C, A29U, C30A, C31U, C32U, U33A
B26: Ie_S4_P5E.1_K5.1_C5.1_H5.1_[+3CCC]_A5.1_F5.1_T5.1 (ssRNA)
RNA: B16 RNA with A27C, U28C, A29C, C30A, C31U, C32U, U33A
B27: Ie_S4_P5E.1_K5.1_C5.1_H5.1_[+1CCT]_A5.1_F5.1_T5.1 (ssRNA)
RNA: UUUGACAACUGAUCGUUCUUUCUUCCUGUAUUAUUAUUCUUUCUCGAUCAGUUGUCUUU
B28: Ie_S4_P5E.1_K5.1_C5.1_H5.1_[+1CTT]_A5.1_F5.1_T5.1 (ssRNA)
RNA: B27 RNA with C26U
B29: Ie_S4_P5E.1_K5.1_C5.1_H5.1_[+1CTC]_A5.1_F5.1_T5.1 (ssRNA)
RNA: B27 RNA with C26U, U27C
B30: Ie_S4_P4E.1_K4.1_C4.1_H4.1_A4.1_[+7C]_F4.1_T4.1 (ssRNA)
RNA: UUUGACAACUGAUCGUUCUUUCUUGUAUAUCUAUUCUUUCUCGAUCAGUUGUCUUU
B31: Ie_S4_P4E.1_K4.1_C4.1_H4.1_A4.1_F4.1_[+9C]_T4.1 (ssRNA)
RNA: B30 RNA with C31U, U32A, A33C
B32: Ie_S4_P4E.1_K4.1_C4.1_H4.1_A4.1_F4.1_[+8C]_T4.1 (ssRNA)
RNA: B30 RNA with C31U, U32C
B33: Ie_S4_P5E.1_K5.1_C5.1_H5.1_[+1CCCT]_A5.1_F5.1_T5.1 (ssRNA)
RNA: UUUGACAACUGAUCGUUCUUUCUUCCCUGUAUUAUUAUUCUUUCUCGAUCAGUUGUCUUU
B34: Ie_S4_P5E.1_K5.1_C5.1_H5.1_[+2CCTC]_A5.1_F5.1_T5.1 (ssRNA)
RNA: B33 RNA with C25G, G29C
B35: Ie_S4_P5E.1_K5.1_C5.1_H5.1_[+3TTCC]_A5.1_F5.1_T5.1 (ssRNA)
RNA: B33 RNA with C25G, C26U, C27U, G29C, U30C
B36: Ie_S4_P5E.1_K5.1_C5.1_H5.1_[+2TTCC]_A5.1_F5.1_T5.1 (ssRNA)
RNA: B33 RNA with C25G, C26U, C27U, U28C, G29C
B37: Ie_S4_P5E.1_K5.1_C5.1_H5.1_[+3TCTC]_A5.1_F5.1_T5.1 (ssRNA)
RNA: B33 RNA with C25G, C26U, C27U, U28C, G29U, U30C
B38: Ie_S4_P4E.1_K4.1_C4.1_H4.1_A4.1_[+7CTC]_F4.1_T4.1 (ssRNA)
RNA: UUUGACAACUGAUCGUUCUUUCUUGUAUAUCUCUAUUCUUUCUCGAUCAGUUGUCUUU
B39: Ie_S4_P4E.1_K4.1_C4.1_H4.1_A4.1_F4.1_[+9TTC]_T4.1 (ssRNA)
RNA: B38 RNA with C31U, U32A, C33U, A35C
B40: Ie_S4_P4E.1_K4.1_C4.1_H4.1_A4.1_F4.1_[+9CTC]_T4.1 (ssRNA)
RNA: B38 RNA with C31U, U32A, A35C
B41: Ie_S4_P5E.1_K5.1_C5.1_H5.1_[+3TC]_A5.1_F5.1_T5.1 (ssRNA)
RNA: B38 RNA with A27U, U28C, C31U, U32A, C33U
B42: Ie_S4_P5E.1_K5.1_C5.1_H5.1_[+1TC]_A5.1_F5.1_T5.1 (ssRNA)
RNA: B38 RNA with G25U, U26C, A27G, C31U, U32A, C33U
B43: Ie_S4_P4E.1_K4.1_C4.1_H4.1_A4.1_F4.1_[+9CTT]_T4.1 (ssRNA)
RNA: B38 RNA with C31U, U32A, A35U
B44: Ie_S4_P5E.1_K5.1_C5.1_H5.1_[+1TT]_A5.1_F5.1_T5.1 (ssRNA)
RNA: B38 RNA with G25U, A27G, C31U, U32A, C33U
B45: Ie_S4_P5E.1_K5.1_C5.1_H5.1_[+4CT]_A5.1_F5.1_T5.1 (ssRNA)
RNA: B38 RNA with U28C, A29U, C31U, U32A, C33U
B46: Ie_S4_P4E.1_K4.1_C4.1_H4.1_A4.1_[+7TTC]_F4.1_T4.1 (ssRNA)
RNA: B38 RNA with C31U
B47: Ie_S4_P4E.1_K4.1_C4.1_H4.1_A4.1_F4.1_[+8TCC]_T4.1 (ssRNA)
RNA: B38 RNA with C31U, U34C
B48: Ie_S4_P5E.1_K5.1_C5.1_H5.1_[+3CT]_A5.1_F5.1_T5.1 (ssRNA)
RNA: B38 RNA with A27C, C31U, U32A, C33U
B49: Ie_S4_P5E.1_K5.1_C5.1_H5.1_[+3TT]_A5.1_F5.1_T5.1 (ssRNA)
RNA: B38 RNA with A27U, C31U, U32A, C33U
B50: Ie_S4_P5E.1_K5.1_C5.1_H5.1_[+4CC]_A5.1_F5.1_T5.1 (ssRNA)
RNA: B38 RNA with U28C, A29C, C31U, U32A, C33U

Target: T1, PUF4 RNA-binding domain
Assay: Mg; RNA-MaP; 20 mM Na-HEPES pH 7.4, 30 mM KOAc, 0.75 mM MgCl2, 0.1% Tween-20, 5% glycerol, 0.1 mg/mL BSA, 2 mM DTT; 25 C; 0.0125-409.6 nM protein
Conditions: tags: N-His6-TEV cleaved; C-SNAP kept, Cy3B-labelled; label: tethered on chip by stalled RNA polymerase

| Binder | Kd [nM] |
| --- | --- |
| B1 | 6.66 |
| B2 | 0.343 |
| B3 | 0.565 |
| B4 | 56.3 |
| B5 | 3.92 |
| B6 | 34.1 |
| B7 | 0.607 |
| B8 | 0.647 |
| B9 | 41.6 |
| B10 | 581 |
| B11 | 107 |
| B12 | 670 |
| B13 | 26.3 |
| B14 | 1360 |
| B15 | 54.8 |
| B16 | 22.2 |
| B17 | 15.6 |
| B18 | 6.61 |
| B19 | 9.83 |
| B20 | 0.777 |
| B21 | 8.87 |
| B22 | 18.4 |
| B23 | 0.36 |
| B24 | 5.61 |
| B25 | 15.3 |

| Binder | Kd [nM] |
| --- | --- |
| B26 | 27.8 |
| B27 | 1.07 |
| B28 | 1.38 |
| B29 | 216 |
| B30 | 1.92 |
| B31 | 1.51 |
| B32 | 13.1 |
| B33 | 1.21 |
| B34 | 863 |
| B35 | 44.8 |
| B36 | 26.4 |
| B37 | 40.3 |
| B38 | 10.3 |
| B39 | 0.42 |
| B40 | 1.39 |
| B41 | 2.68 |
| B42 | 288 |
| B43 | 1.08 |
| B44 | 1.52 |
| B45 | 0.642 |
| B46 | 4.42 |
| B47 | 4.35 |
| B48 | 10.9 |
| B49 | 8.89 |
| B50 | 1.43 |

Reference: PMC9352680, “A comprehensive thermodynamic model for RNA binding by the Saccharomyces cerevisiae Pumilio protein PUF4”
